Results on four molecules are retold here after US11090383 (CENTRE FOR DRUG RESEARCH AND DEVELOPMENT, dated 2021).

The target in assay [1] is WT Podocalyxin (on normal cells and tissues) (human) (UniProt O00592). The assay is described as follows: flow cytometry, live 293 cells.
For assay [2] the target is unchanged. As to the kind of experiment: flow cytometry, live HUVEC cells. Background: A flow cytometer gives signals particle by particle.
A further assay deals with cPodo/CHO. The assay is described as follows: flow cytometry, live cPodo/CHO cells; Mock/CHO with this antibody: 2%.
For assay [3], the target named is WT Podocalyxin (on normal cells and tissues) (human) (UniProt O00592). The assay is described as follows: IHC, Normal Kidney.
The target of assay [4] is T1, human podocalyxin as displayed on tumor cells (A172, SKOV3, MIA PaCa-2, MDA-MB-231, OVCAR10) (human, UniProt O00592 23-558, post-translational glycan recognised by Podo447 (O-linked, with beta-GalNAc that may be terminal; site not stated)).
T1 construct: Endogenous podocalyxin of tumor cell lines, on cells, in lysates or in cryosections; also called tumor-associated Podocalyxin
T1 chain: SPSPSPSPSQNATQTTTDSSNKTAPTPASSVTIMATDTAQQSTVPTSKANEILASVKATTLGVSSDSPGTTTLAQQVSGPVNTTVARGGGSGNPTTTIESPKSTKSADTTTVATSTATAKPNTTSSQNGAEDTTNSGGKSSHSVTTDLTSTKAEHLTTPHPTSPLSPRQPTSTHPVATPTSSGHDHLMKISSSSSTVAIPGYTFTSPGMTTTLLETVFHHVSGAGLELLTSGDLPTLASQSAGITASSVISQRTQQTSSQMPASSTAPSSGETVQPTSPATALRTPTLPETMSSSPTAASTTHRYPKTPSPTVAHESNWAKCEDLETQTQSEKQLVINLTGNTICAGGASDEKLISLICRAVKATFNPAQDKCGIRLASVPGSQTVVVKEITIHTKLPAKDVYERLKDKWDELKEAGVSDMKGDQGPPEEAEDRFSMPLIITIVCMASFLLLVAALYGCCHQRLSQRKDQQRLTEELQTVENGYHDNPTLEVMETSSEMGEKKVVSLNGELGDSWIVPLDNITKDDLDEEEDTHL
As to the kind of experiment: flow cytometry, MDA.MB.231 Podo KD. As to the method: (§1) Cells were cultured under continuous antibiotic selection with puromycin (4 µg/ml; Invitrogen, Burlington, ON) and G418 (lmg/ml; Calbiochem, Darmstadt, Germany). shRNA constructs were generously provided by Dr. John Wilkins (University of Manitoba, Winnipeg, MB) and the infections were performed by Michelle Turvey and Dr. Shaun McColl (University of Adelaide, Australia). 2.5×10^5 MIA PaCa-2 cells were seeded per well in a 6-well TC-Treated plate (Costar, cat#3516). After incubation overnight, cells were transfected with 10 nM siRNA following the guidelines of the Oligofectamine protocol (cat#12252-011, Invitrogen, Burlington, ON). Pre-Design and validated siRNA (PODXL siRNA, cat# s10770; Negative control No. 1 siRNA, cat#4390843) were obtained from Ambion (Thermo Fisher Scientific, Burlington, ON). Knock-downs were assessed by flow cytometry two days after transfection.
(§2) Sub-confluent cell lines were washed once with Ca^2+ and Mg^2+ free HBSS (Invitrogen, Carlsbad, Calif.) harvested with 0.25% Trypsin/EDTA (Invitrogen, Carlsbad, Calif.). Cells were quenched with normal growth media and centrifuged at 300×g for 5 minutes. Cells were washed once with FACS buffer (2% FBS, 2 mM EDTA, PBS, 0.05% NaAzide). Cells were blocked for 20 minutes at 4° C. in Blocking Buffer (2% rat serum, 2 µg/ml dilution of 2.4G2 (anti-CD16/CD32)) in a 96 well 'v' bottom plate. […]

In assay [5] the target is T1, human podocalyxin as displayed on tumor …. The assay is described as follows: flow cytometry, MIA PaCa-2 PODXL siRNA. As to the method:
as §1, §2

Assay [6] has as its target WT Podocalyxin (on normal cells and tissues) (human) (UniProt O00592). The assay is described as follows: IHC, Normal Cerebellum; Weak and Strong columns hold '-'.
In assay [7] the target is T1, human podocalyxin as displayed on tumor …. The assay is described as follows: KinExA kinetic exclusion assay, antigen: MDA-MB-231 Cells. (Kinetic exclusion samples the free partner from a solution-phase mixture.)
For assay [8] the target is unchanged. As to the kind of experiment: flow cytometry, titrated antibody on A172 cells, four-parameter fit. As to the method:
(§3) Briefly, A172 cells were detached using cell dissociation solution (Sigma-C5914) and incubated with titrated purified antibodies in 96-well V-bottom plates. Antibody binding was detected using a goat anti-human IgG-Fc-Alexa 647 secondary antibody (Jackson 109-605-098) and the cells were analyzed on the Intellicyt high throughput flow cytometer (HTFC).
Table immediately above: Statistical data using Graphpad Prism analysis software representing the data presented above. Values were calculated using a variable slope (four parameters) non-linear regression analysis.

Assay [9] shares this target. The assay is described as follows: KinExA, titrated A172 cells with constant antibody, free antibody measured. As to the method: Example 13—Determination of Affinity of PODO447 and PODO83 for Cellular PODXL Antigens by Kinetic Exclusion Assay The concentration dependence of free anti-podo antibody as a function of A172 cell number was determined using a Sapidyne KinExA 3200. […] A172 cells and cell bound antibodies were then isolated by centrifugation. Supernatant containing free, unbound antibody was then transferred to a new tube. In the KinExA, a new column of PMMA beads coated with a Gt anti-IgG-Fc capture antibody is packed for each sample assayed. The supernatant containing free unbound antibody is passed over the column. The amount of free antibody captured on the PMMA beads was then measured using a Gt anti-IgG-Fc-A647. The concentration of free antibody over the entire 12 step dilution series was then used to determine the antibody Kd's using the standard Kd template in the KineExA Pro Software.
Table immediately above: Kinetic exclusion assay (KinExA) affinity determination of humanized and rabbit/human chimeric antibodies to Podocalyxin endogenously expressed on A172 cells. A172 cells were titrated and incubated with constant antibody concentrations and allowed to reach equilibrium with a 16 hour incubation. Free, unbound antibody in the supernatant was then captured on the KinExA 3200 using poly(methyl methacrylate) (PMMA) beads coated with goat anti-human IgG-Fc capture antibodies and detected with goat anti-human IgG-Fc-alexa 647 label.

Assay [10] has the same target. The assay is described as follows: flow cytometry titration on A172 cells, goat anti-human IgG-Fc-Alexa 647. As to the method:
as §3

Take Control Rb/HuIgG1 (antibody): the Live cell GeoMean FL is 446 in assay [1] and 489 in assay [2].

For MsIgG2a (antibody), the results for the Live cell GeoMean FL in [1] and in assay [2] were 556 and 484, respectively. For the same molecule, the % Shifting (FL4) Live Cells with cPodo/CHO was found to be 1%.

B1: Podo447 antibody, recombinant rabbit/human IgG1 chimera (antibody, V domains shown)
VH: QSLEESGGRLVTPGTPLTLTCTASGFSLSGYQMNWVRQAPGKGLEWIGYIWSDGGTDYASWAKGRFTISKTSSTTVDLKMTSLTTEDTATYFCAREGYWLGAFDPWGPGTLVTVSS
VL: AAVLTQTPSPVSAAVGATVSVSCQSSQSVHHKNDLAWFQQKPGQPPKLLIYYTSTLASGVPSRFKGSGSGTQFTLTISDLECDDAATYYCAGVYEGSSDNRAFGGGTEVVVKR
notes: also called anti-Podo
For the molecule B1, the IHC score Negative, cases of total in [3] was 98%; in assay [6] it was 0 of 10 cases. In addition, the IHC score Weak, cases of total in assay [3] was found to be 1.9%. In addition, the Live cell GeoMean FL was determined as 6710 in assay [1] and 3970 in assay [2]. The figures for the “decrease of binding on podocalyxin knockdown (fold)” value in [4] and in assay [5] were 2.5 X and 10 X, respectively. The Kd in assay [7] amounted to 189 pM; in assay [9], 7.57 pM. For the same molecule, the “Kd High” value is 52400 pM in assay [7] and 24.9 pM in [9]. The “Kd Low” value came out at 42.5 pM in assay [7] and 2.3 pM in assay [9]. This molecule came in with a LogIC50 in assay [8] of 2.28. In assay [10], the “EC50 (read off the curve)” value was about 0.2 µg/mL.

B2: Humanized Podo447 (humanized_podo447VH_hIgG1C with humanized_podo447VL6_hIgkC) (antibody, V domains shown)
VH: EVQLVESGGGLVQPGRSLRLSCTASGFSLSGYQMNWVRQAPGKGLEWVGYIWSDGGTDYTASVKGRFTISRDGSKSIAYLQMNSLKTEDTAVYYCAREGYWLGAFDPWGQGTSVTVSA
VL: AAQLTQSPSPLSASVGDRVTITCQSSQSVHHKNDLAWYQQKPGKAPKLLIYYTSTLASGVPSRFSGSGSGTDFTLTISSLQPEDFATYYCAGVYEGSSDNRAFGGGTKVEIKR
notes: The labels R0943_A046 and CDRD-0103-001 are tied to this molecule only by the word 'Humanized'; also called R0943_A046 (Humanized); CDRD-0103-001 (Humanized)
B2 registered a LogIC50 in assay [8] of 2.09. For the same molecule, in assay [9], the Kd turned out to be 14.4 pM, the “Kd High” value worked out at 45.9 pM and the “Kd Low” value is 4.59 pM. The “EC50 (read off the curve)” value in [10] is about 0.1 µg/mL.

As usually defined, the Kd is the equilibrium constant for the complex coming apart. Read a high Kd as weaker binding. One may read the EC50 (read off the curve) as the concentration at which the effect is half-maximal. High values mean a less potent agent, low ones a more potent agent.
